# Data taken from paper PMC5430804, “Structural and biochemical insights of CypA and AIF interaction” (Scientific Reports, 2017).
# B1: AIF(370-394) synthetic peptide (peptide, UniProt O95831 370-394, looked up)
# peptide: QSVGVSSGKLLIKLKDGRKVETDHI
# notes: also called AIF peptide; source: synthetic peptide
# B2: CypA(55-69) + (67–79), two peptides tested in combination (other)
# peptide 1: RIIPGFMCQGGDFTR
# peptide 2: FTRHNGTGGKSIY
# notes: Cyclophilin A (CypA), residues 55-69; Cyclophilin A (CypA), residues 67-79; A mixture of separate peptides; source: synthetic peptides, combined
# B3: CypA(55-69) + (67–79) + (49-62), three peptides tested in combination (other)
# peptide 1: RIIPGFMCQGGDFTR
# peptide 2: FTRHNGTGGKSIY
# peptide 3: KGSCFHRIIPGFMC
# notes: Cyclophilin A (CypA), residues 55-69; Cyclophilin A (CypA), residues 67-79; Cyclophilin A (CypA), residues 49-62; A mixture of separate peptides; source: synthetic peptides, combined; copies: + +
# B4: CypA(121-131) + (99–109), two peptides tested in combination (other)
# peptide 1: WLDGKHVVFGK
# peptide 2: SMANAGPNTNG
# notes: Cyclophilin A (CypA), residues 99-109; A mixture of separate peptides; source: synthetic peptides, combined
# B5: CypA(121-131) + (83–90), two peptides tested in combination (other)
# peptide 1: WLDGKHVVFGK
# peptide 2: FEDENFIL
# notes: Cyclophilin A (CypA), residues 83-90; A mixture of separate peptides; source: synthetic peptides, combined
# B6: CypA(55-69) + (49–62), two peptides tested in combination (other)
# peptide 1: RIIPGFMCQGGDFTR
# peptide 2: KGSCFHRIIPGFMC
# notes: Cyclophilin A (CypA), residues 55-69; Cyclophilin A (CypA), residues 49-62; A mixture of separate peptides; source: synthetic peptides, combined
# B7: CypA(67-79) + (49–62), two peptides tested in combination (other)
# peptide 1: FTRHNGTGGKSIY
# peptide 2: KGSCFHRIIPGFMC
# notes: Cyclophilin A (CypA), residues 67-79; Cyclophilin A (CypA), residues 49-62; A mixture of separate peptides; source: synthetic peptides, combined
# B8: CypA(121-131) + (99–109) + (83-90), three peptides tested in combination (other)
# peptide 1: WLDGKHVVFGK
# peptide 2: SMANAGPNTNG
# peptide 3: FEDENFIL
# notes: Cyclophilin A (CypA), residues 99-109; Cyclophilin A (CypA), residues 83-90; A mixture of separate peptides; source: synthetic peptides, combined; copies: + +
# B9: CypA(55-69) peptide with R69 replaced by alanine (peptide, UniProt P62937 55-69, looked up)
# peptide: RIIPGFMCQGGDFTA
# notes: Cyclophilin A (CypA), residues 55-69, R69 replaced by alanine; also called CypA(55-69)R69; source: synthetic peptide
# B10: CypA(99-109) + (83–90), two peptides tested in combination (other)
# peptide 1: SMANAGPNTNG
# peptide 2: FEDENFIL
# notes: Cyclophilin A (CypA), residues 99-109; Cyclophilin A (CypA), residues 83-90; A mixture of separate peptides; source: synthetic peptides, combined
# Target: T1, His-tagged Cyclophilin A (CypA) (UniProt P62937 1-165)
# T1 construct: Cyclophilin A (CypA), peptidyl-prolyl isomerase; Uniformly 15N-labelled for the NMR experiments, unlabelled elsewhere; also called CypA wild type; 15N-CypA; source: bacteria, IPTG-induced, purified (His-trap HP, size exclusion chromatography)
# Assay: ITC; AIF(370-394) 0.7 mM injected (20 x 2 μL) into CypA 5 μM, 25 °C, PBS 1X with 1 mM DTT, pH 7.4; single-site model; triplicate
# Conditions: both partners purified
# T1 sequence (P62937 whole entry): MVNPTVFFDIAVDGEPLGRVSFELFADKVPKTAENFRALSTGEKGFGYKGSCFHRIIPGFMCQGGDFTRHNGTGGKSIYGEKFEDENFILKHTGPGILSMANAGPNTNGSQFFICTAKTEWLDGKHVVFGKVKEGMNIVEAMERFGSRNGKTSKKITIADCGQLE
row,Kd [µM],Binder
1,6,B1

# Target: T1, His-tagged Cyclophilin A (CypA)
# Assay: EnSpire label-free direct binding assay; direct binding of CypA peptides, CypA or CypA R55A with AIF(370-394) or AIF(Δ1-121); details (who was immobilised) in the Supplementary Information
# Conditions: both partners purified
row,Kd [µM],Binder
1,3 ± 0.6,B1

# Target: T2, CypA R55A mutant (UniProt P62937 1-165, R55A)
# T2 construct: Cyclophilin A (CypA) with R55A; the R55A mutant corresponding to His-tagged CypA; The starting construct carried a Myc tag; also called R55A CypA mutant; R55A mutated CypA; source: prepared starting from the construct pCMV6-AC-Myc-CypA^R55A
# Assay: as above
# Conditions: both partners purified
# T2 sequence (P62937 whole entry R55A): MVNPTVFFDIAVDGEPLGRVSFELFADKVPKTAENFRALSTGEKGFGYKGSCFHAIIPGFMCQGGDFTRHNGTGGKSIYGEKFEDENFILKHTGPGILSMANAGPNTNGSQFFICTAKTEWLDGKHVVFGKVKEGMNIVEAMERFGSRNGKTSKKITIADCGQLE
row,Kd [µM],Binder
1,3.1 ± 0.7,B1

# Target: T3, Apoptosis Inducing Factor, pro-apoptotic form AIF(Δ1-121) (UniProt O95831 122-613)
# T3 construct: also called apoptogenic form of AIF
# Assay: as above
# Conditions: both partners purified
# T3 sequence (O95831 122-613, stated change not applied): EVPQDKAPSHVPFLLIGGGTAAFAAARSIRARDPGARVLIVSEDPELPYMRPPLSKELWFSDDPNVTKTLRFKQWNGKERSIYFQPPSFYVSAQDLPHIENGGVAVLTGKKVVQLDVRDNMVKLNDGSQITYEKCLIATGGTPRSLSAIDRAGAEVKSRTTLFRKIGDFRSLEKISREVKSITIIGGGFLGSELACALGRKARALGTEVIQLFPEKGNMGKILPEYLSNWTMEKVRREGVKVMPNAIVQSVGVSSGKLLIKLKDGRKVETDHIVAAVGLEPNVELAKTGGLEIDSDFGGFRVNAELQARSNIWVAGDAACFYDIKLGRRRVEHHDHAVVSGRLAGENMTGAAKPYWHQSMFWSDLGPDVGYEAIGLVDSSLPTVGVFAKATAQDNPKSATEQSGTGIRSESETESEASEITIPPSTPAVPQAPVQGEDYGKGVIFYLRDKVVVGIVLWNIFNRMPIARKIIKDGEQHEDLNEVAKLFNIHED
row,Kd [µM],Binder
1,51.4 ± 12.2,B2
2,25.2 ± 5,B3
3,27.2 ± 5.8,B4
4,31.3 ± 2.8,B5
5,2.2 ± 0.7,B6
6,2.8 ± 0.9,B7
7,38.8 ± 4.6,B8
8,> 1000,B9

# Target: B1
# Assay: as above
# Conditions: both partners purified
row,Kd [µM],Binder
1,34.9 ± 8.1,B2
2,20.7 ± 6.5,B3
3,43 ± 6.8,B4
4,304 ± 10.8,B10
5,87 ± 5.8,B5
6,4.6 ± 1.3,B6
7,3.1 ± 1.3,B7
8,268 ± 9.65,B8
